# Results from the supplement of paper PMC9170038.
# Test system: K4 kissing-loop RNA reporter
# Assay: apparent KD of K4 kissing-loop reporter; higher = weaker reporter binding
# Settings: Eterna round: R107
# Protocol: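 RNA-MaP round R107: designed RNA switches with theophylline, tryptophan, arginine or FMN aptamers are transcribed on-chip within common flanks. They are titrated with a labelled K4 kissing-loop RNA reporter in RNA-MaP buffer (100 mM Tris pH 7.5, 80 mM KCl, 4 mM MgCl2), without ligand or with the indicated ligand. Median apparent KD per design.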
# [1] = input ligand: theophylline 20 uM
# [2] = input ligand: tryptophan 2.4 mM
# 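Further: bound reporter read as fluorescence of individual clusters on recovered sequencing chips by microscopy, with normalized cluster intensities fitted with a binding model.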
Sequence,apparent KD of K4 kissing-loop reporter (input ligand: FMN 200 uM) [nM],apparent KD of K4 kissing-loop reporter (input ligand: arginine 13.2 mM) [nM],apparent KD of K4 kissing-loop reporter (input ligand: none) [nM],apparent KD of K4 kissing-loop reporter [1] [nM],apparent KD of K4 kissing-loop reporter [2] [nM]
GCGCGGGAGUGAUGUUCCAAGUGGUGUUAACGAGGACCGGUACGGCCGCCACUCGUUACGGCCGGGCCGUAGGAUAAACUGGCGC [Same State - Tryptophan A (Freestyle 15)],373,418,479,544,398
ACACGGGUCUCGGCCGCCACUCUGCCUACCACCAUUAGUGCCAGUGAUGUUGGCAGGUGAGGGCUGAGGACCGGGAGAUCCAUAC [Zaremais],140,124,136,122,107
AUGCGCGUGCGAUGCAAAUCGCACGCGCAUCGAGGACCGGUACGGCCGCCACUCGCUCGCGCCGAGUGAUGUUCGGCCGGCGAAC [#2 Same State - Tryptophan A Attempt #6 (HarryS)],258,243,269,327,565
AUUAAUUUCAGAGGAUAUCGUAUUAAUAUUUUAUCUAUCUAUAUAUGCAGUGAUGUUGCAAUAAUUCGAGAAGGCUGAUUUAUAA [JR_ExcFMNB_Sub009],93.9,101,52.3,91.8,47.7
CGGACUGCAGGAAGGAGCGGCGGACGGAGUGAUGUUCCGGGUAGUGAUGUUACCAAACACCGCCAGGUAGGUCGCCUGUUGCUCC [Same State Arginine B GF8],161,134,170,146,147
CUUGCCCUUUCGGCCGCCACUCCGAGUGAUGUUGGGAUGUUCGGUGCAGCCAUUUAGAUGUCAGUGAGGACCGGGAAAUUAUGCG [theeternabot_exclusion_KL_Trp_B_9],220,128,251,150,196
UGACGCCUGUCGGCCGCCACUCACAGCAGCCAGUGAUGUUGGAUUGUAGCGGAGUGAUGUUUCGCGAGGACCGGGACUGCAGUUG [Same State Tryptophan B GF 13],259,249,260,321,250
AAUGUACAGGGAAGGAGCGUCGUCCAGUGAUGUUGGAGUUAAAUACCAGUGAUGUUGGUUAGGCAGGUAGGUCGCCCUAAAGUAU [#08 K4 Arginine B Exclusion],96.1,71.5,86.9,80,75.2
AGUGAUGUUGAGUGAUGUUAGUGAAGUGAUCGAGGACCGGUACGGCCGCCACUCGAGUGAUGAGUGAGUGAUGUUUGUUUAGUGA [hhbmullin],168,74.4,113,120,78.2
AAGUGAUGUUGUAGUGAUGUUGUGAUGUUGCAGGAUAUAUAGUGAUGUAGAAGGGUAAGUACUGAUUUUGUUUGUGAGUGAUGUU [zqqzzrmullin],92.8,40.1,73.8,61.1,67.8
CCUGCAGCUGUAACCGAGUGAUGAUACGGACGAGGACCGGUACGGCCGCCACUCGCCAGUGAUGUUGGUGUGGGAGGACGUAACU [KL-XTryp-A23],241,177,237,256,221
UACAUAUAAUUAUUUCUACAUUUAUUUAGUCAGGAUAUCGAUUAAACGAGAAGGGACAAUAUCAAGUGAUGUUUGAUAAUUCAAA [JR_ExcFMNA_Sub010],84.6,127,75.4,112,58.6
AUUGUAUACUGAAGGAGCGAGUAGUGGAAACAUAAACUCAUUGCGAGUGAUGUUCGCAGUACUCAGGUAGGUCGCAGUAAUGGUA [Exclusion Arginine B Gf 9],756,167,528,242,451
AGUGCACUGUCAGGAUAUAUACAGUGAUGUUGUGUAUGUCAGCAAGUCAAAGACUUGCUAUUUUGUAUAGAAGGGACUGUGUACA [whbob_Ex_FMNB__2th222],574,258,294,276,286
AAGCAGUCACUCGAAACCAUCGAAGAUGGACGAGGACCGGUACGGCCGCCACUCGGAGUGAUGUUCCGAAGACUGCAAAAUAAAA,373,374,374,434,370
CCCUUGGUAUAUCGGUAUGUAUAAGCGGAUACCAGCCAGGACAACGGCCCUUGGCAGCCGGGCAGGCAGAGUGAUGUUCAUGCUA [theeternabot_exclusion_KL_Theo_A_22],385,368,516,535,346
AAGGUUGUGCAUGGGAGUGAUGUUCCCAGGCAGGAUAUCGCUCACGCGAGAAGGGCUAGCACAACCGCUCAAGAAACUUGAGCAA [Omei KL FMN A SS C v4],117,97.1,113,116,94.5
